This note sets out measurements from the DeepSol protein solubility set.

The nature of this data set: soluble on expression in E. coli; label from the status in PepcDB or PDB records.
Take “MSLAQFTTNPQRFDPYKNFKFRIKWGADYVAGVSKISGLKRTTEVVKHREGGDPSSSRKSPGRTEYEAITMERGVTHDVAFEQWANKVWNYGSGLGKEVSLADFRKDLVIEVYNEAGQAAMRYKVFRCWVSEFQSMSDLDANGNAVLIQHLKLETEGWERDYDLVEPKEGTFTEPAEGHHHHHH”: the “soluble on expression in E. coli” value is “soluble”.

“MAKFTVGQDPVKGLTELKAYMEEQISKIKKATSEQEIDQLLVEVLNEYDDKMGSLSKIYKGGNEQVEQLKIDVRKLYEPLRDQFSYNHPQTLVGEFQTKLEEQHKRAEEEKRKLEKQREEQLKLEKQLEEEKQKLAKQSEVEEKPKLENQQEENITQALQKVDGIIQELTLKIDRVDQHQYKKAHDTANTLLQSLIAARDEYERDLRANEFSQELAGRKFKLACQDAVKIAKPVLEKDLGWGDYLKNLLKCLGNAVITVFTFGYQQGFFAYARPDSAKAVEKAEEDLGLRQAASSPK”: the “soluble on expression in E. coli” value is listed as “not soluble”.

As for “MFEAKLANAGLLKKIVESIKDLVTDAPFDCSETAMSLQAMDSSHVALVSLKLEVGLFDTYRCDRTINLGLSLANMSKALKCANNDDTCMLKYEENEGDSIIFTFADPKRDKTQDVTVKMMDIDSEHLGIPDQDYAVVCEMPAGEFQKTCKDLSTFSDSLNITATKAGIVFTGKGDIGSSVVTYSPSSNTDDETEAVTLEVKDPVNVNFSIKYMNQFTKATALSDRVRLSLCNDVPVVVEYPIEENGYLRFYLAPKIDDDENMD”, the “soluble on expression in E. coli” value is “soluble”.

For the sequence “MSLHGKLIQFHKFGNPKDVLQVEYKNIEPLKDNEVFVRMLVRPINPSDLIPITGAYAHRIPLPNIPGYEGVGIVENVGAFVSRELIGKRVLPLRGEGTWQEYVKTSADFVVPIPDSIDDFTAAQMYINPLTAWVTCTETLNLQRNDVLLVNACGSAIGHLFAQLSQILNFRLIAVTRNNKHTEELLRLGAAYVIDTSTAPLYETVMELTNGIGADAAIDSIGGPDGNELAFSLRPNGHFLTIGLLSGIQVNWAEIVTKAKVHANIFHLRHWNDEVSPYKWQETFRHLIRLVENEQLRFMKVHSTYELADVKAAVDVVQSAEKTKGKVFLTSYEGHHHHHH”, the “soluble on expression in E. coli” value is “soluble”.

In the case of “MKWRSRQLSFSSAKWYGDVIWIFDPGIIGAQIDNEGDLKKCFIQTLFHSTGSRQSIRIWWREIMLSLILRIYLDKFLPWISLSIKEVGESSVINFSLWGCLHGTRFRRWYSPFQKLSALAITKKDVISSSWRCFNGMRCN”, the “soluble on expression in E. coli” value is on record as “soluble”.

Take “AHHHHHHGSVEVKKHKFPGVYVVIDDDGSEKIATKNLVPGQRVYGERVIKWEGEEYRIWNPHRSKLGAAIVNGLKNFPIKPGKSVLYLGIASGTTASHVSDIVGWEGKIYGIEFSPRVLRELVPIVEERRNIIPILGDATKPEEYRALVTKVDVIFEDVAQPTQAKILIDNAKAYLKRGGYGMIAVKSRSIDVTKEPEQVFKEVERELSEYFEVIERLNLEPYEKDHALFVVRKP”: the “soluble on expression in E. coli” value is listed as “soluble”.

As to “MGSDKIHHHHHHMPRPFRLSCALLHEPVSSNLMDLKYGDTSFSLAIPPERLMGVIRPSVPAPDSDPAAIISEALDRCADAIATFRTGERVVIVTSDITRYTGSEIYLPLLVERLAAAGVRERDIEIVVALGIHRKQTEHEHQRITGPLYGRIRITDHECDNPGKLVLIGRTSTGVDVVVNRTVAEADRVILTGTIGFHYFAGFGGGRKSILPGVAGRASCMASHYAVLNPGEGTGRNPLATTGNLEGNPVHQTMVEACAMVNPEFILNTVLSPAKRIIAAFAGHWREAHEEGCRFYADRFSFPLKKPADLVVVSCGGYPKDINVIQSHKSMEYGCQALRRGGVMVLLAQCRDGYGNATFFDWFRFRELDAFEARLRSHYEINGQTAFSLLQKARTFSIILVSDLPPEEVRTMGMTPARTLDEAMTAAASLLPSDYTAYVVPEGGTVLPIMM”, the “soluble on expression in E. coli” value is “not soluble”.

On to “MENAGKATSLQSSRDLFHRLMSENSSGGWEKSWEAGATPWDLGKPTPVIAHLVETGSLPNGRALVPGCGTGYDVVAMASPDRHVVGLDISKTAVERSTKKFSTLPNAKYFSFLSEDFFTWEPAEKFDLIFDYTFFCAFEPGVRPLWAQRMEKLLKPGGELITLMFPIDERSGGPPYEVSVSEYEKVLIPLGFEAISIVDNELAVGPRKGMEKLGRWKKSSTFHSTL”, for which the “soluble on expression in E. coli” value is “soluble”.

As to “MGSDKIHHHHHHMSKVFIIGLPRTGTTSISVALLEMGLSVAHTAFTKKAFEMADAVTDAPCFSDYMHLDRIFPHAKFIYLTREMAKWVPSIIMLLEKMAPHLDPKTGKFNPILKRSFHHTFPGTLPLTENELIDCYTRHEQAVLSYFEGRDDFLSIDISKQGSLLEMKMFLGIEAQGSADFPKLNVGRDVASWKDYKHPNKINSNLAGVEHRKYYDYALVDYRTY”, the “soluble on expression in E. coli” value was “not soluble”.

As for “MGHHHHHHSHMYSEIQRERADIGGLMARPEYREWNPELIKPKKLLNPVKASRSHQELHRELLMNHRRGLGVDSKPELQRVLEHRRRNQLIKKKKEELEAKRLQCPFEQELLRRQQRLNQLEKPPEKEEDHAPEFIKVRENLRRIATLTSEEREL”, the “soluble on expression in E. coli” value is listed as “not soluble”.

As for “MGSDKIHHHHHHVTPFAQTAAQTDHYDVIVIGAGPSGSVAASLLHQQGKRVLVLEKQHFPRFSIGESLLPCCMQVIAEANMLDAVNQAGYQFKNGAAFNANGRSTYFDFTDKFTPGPGTTFQVERGDFDKLLADTAASQGVEIRYGQRVDAVDLSHNPRLTISDEQGASYELSADYLLDASGFGRVLPRLLDLERPSNLPSRTAIFTHIQDNIDSVDMGDYHFDRNKILISVHPDNRDIWYWLIPFSNGRCSLGVVGEPHLLGQDADLEATNLEATLIRLVREEPRLKQLLSRAEIIRKPAKLAGYSANVSTLASDKFALLGNAGEFLDPVFSSGVTIAMQSASIAAKCVVKQLNGESVDWQTEYAQPLMRGVDTFRTYVQAWYDGRFQDVIFYQDPNPKIKQMICSILAGYAWDESNPFVAESERRLNMVVELCR”, the “soluble on expression in E. coli” value was “not soluble”.

“KRSKVLSQASKNAEQFEDKFWSGTDLSQLYQKVKGRKDEIAGTEEIFFAGFTEFARLRKSNANSPAYIMEGTGRAMRVAVAREVDELETS”: the “soluble on expression in E. coli” value was “not soluble”.

“MGHHHHHHSHMANSAGSMANSAGSPGSLFRFAVPPALGSNLTDNVMITVDIIPSGWNSADGKSDKTKSAPSRDPERLQKIKESLLLEDSEEEEGDLCRICQMAAASSSNLLIEPCKCTGSLQYVHQDCMKKWLQAKINSGSSLEAVTTCELCKEKLELNLEDFDIHELHRAHANEQAEYEFISSGLYLVVLLHLCEQSFSDMMGNTNEPSTRVRFINLARTLQAHMEDLETSEDDSEEDGDHNRTFDIA”: the “soluble on expression in E. coli” value is recorded as “soluble”.

For the sequence “PLQEERLQRLQDRMVVPFDETRPDHQESLKALWNVAFPNVHLTGLVTEQWKEMGWQGPNPSTDFRGCGFIALENLLFSARTYPVNYSLLLKQRGDRAKWEYPFAVAGINISFMLIQMLDLQNNQDERAFDVLYCIAFAMMDAQWLAMHASYMEFNEVLQATRNQLERELSLDDIHRIQDLPAYNLLFQ”, the “soluble on expression in E. coli” value is “not soluble”.

For “MSIESKIRQLIDQNGYITCDVLMQEVLNLNPTSYYKQVKSLANEGDFVTAPEISQLFGEIIGLWCIREWQRIGCPKSLSLVELGPGRGLLMRDLLRTAKLVPEFYKALSIELIEINKNFIAYQKANLQDINLPISHQSFVEDIPKKPTIIIANEFFDAIPIKQYIKVKELWYERIFVVQPVDERIKYDKISVNKQLQEYLLCTHIEAKDGAVLEESYKSIEIIKFIAQHLKRLSGSGLIIDYGYDIAPNGRTRYQYNQTLQAVKNHKYCPILENLGEADLSAHVDFYALKTVAKNSKINVIDTISQRDFLIENGILLRKQTLQDKLNDRHLAKFAYREEFKGDTKRSTAAYTLVREDASIGSTYKLPLEVEFGKMSEQAQIIERQVERLISPKQMGELFKVLQIMN”, the “soluble on expression in E. coli” value is given as “not soluble”.

Take “MAHHHHHHMARIPPLVVCGPSGVGKGTLIKKVLSEFPSRFRFSISCTTRNKREKETNGVDYYFVDKDDFERKLKEGQFLEFDKYANNFYGTLKSEYDLAVGEGKICLFEMNINGVKQLKESKHIQDGIYIFVKPPSIDILLGRLKNRNTEKPEEINKRMQELTREMDEADKVGFNYFIVNDDLARTYAELREYLLGSYPQLRGG”: the “soluble on expression in E. coli” value is reported as “soluble”.

As for “MPYADNGVKIYYEVEDGGEPAIVFVHGWTANMNFWREQREYFKGKHRMLFIDNRGHGKSDKPFNRSFYEFDNFVSDLHAAVKDASFDRFVLVGHSFGTMISMRYCVEHPGRVEALVLIGGGARIQSLHRYGYPIGRLFATLAYGISARIIANMAFGRKAGELRDWGLKEALENTPKHAALNTLWTLTTVDLRDIAREIEKPTLIVVGKEDALLPVSKSEELSRLIKNSKMVIVPDAGHCVMLEQPEIVNRVLEEFIHTFSAMLIRA”, the “soluble on expression in E. coli” value was “not soluble”.

Regarding “MSLSTIRIGGAAVNQTPIDWENNVKNILDAIEEAKNANVEILCLPELCITGYGCEDLFLTDWVAETAIEYCFEIAASCTDITVSLGLPMRIAGITYNCVCLVENGIVKGFSAKQFLANEGVHYETRWFTAWPRNHTTTFLYNDVKYPFGDVLYNVKDARIGFEICEDAWRTDRVGIRHYEKGATLVLNPSASHFAFGKSAIRYDLVIGGSERFDCTYVYANLLGNEAGRMIYDGEVLIAHKGKLIQRNDRLSFKNVNLIYADIATDSAETPETVLTQDDLEKEFEFWEATSLGLFDYMRKSRSKGFVLSLSGGADSSACAIMVAEMIRKGLKELGLTAFLQKSNMETLFDLPALQHLPFEEQAKKITAVFLTTAYQSTRNSGDETYTSAKTLAESIGATFYNWSVDEEIEQYKATIENVIERPLTWEKDDITLQNIQARGRAPIIWMLTNVKQALLITTSNRSEGDVGYATMDGDTAGGIAPIAGVDKDFIRSWLRWAEKNRNQHGLHIVNKLAPTAELRPSEYTQTDERDLMPYDVLARIERKAIKERLSPVQVYTALLTEGPYTKNEFKYWVKKFFRLWSINQWKRERLAPSFHMDDFNIDPRSWYRFPILSSGFAKELNDLDQEGHHHHHH”, the “soluble on expression in E. coli” value is “soluble”.

Regarding “MSTSLTIRLVAEADWPALHALDQIIWTKKNTPAEIQPLSLAAYQEKMKDETIFVAISGQQLAGFIEVHPPTSLAAHQKQWLLSIGVSPDFQDQGIGGSLLSYIKDMAEISGIHKLSLRVMATNQEAIRFYEKHGFVQEAHFKEEFYINGHYCDDYQYAYFIEK”, the “soluble on expression in E. coli” value is listed as “soluble”.

“SDQEEGLKALDNIVTQFNAYEDFLDSQITTVDLYYLEDETLARQLVELGYRGTGERVKREDFEARKAAIEIARLAERAQQKTLTSAGKDLQDNFLTALAMREEDNRSGKLSSVIFIRDRNSHGQEISGYIDYAHRLKTEDFEVYFTGKKRLLPRPTDISFYNWDADIAVSNSSPNYQVIADNPEGLLFRYKRDRKILNVDPKAQPGDNSTRITILTELYIQAVIFDHISRRKT”: the “soluble on expression in E. coli” value is “soluble”.

For the sequence “MKKLMLGNEAVARGAYEAGVLVATAYPGTPSTEITEYISKYSEINSEWSVNEKVALEVGIGSAIAGARTIVSMKHVGLNVAADPLMTVAYTGINAGLLIVVADDPSMHSSQNEQDTRYYGMFAKIPVLEPSDSQECKDFVKLGFEISEKFDTPVILRLSTRVSHSQSLVELEEKESIELKPYD”, the “soluble on expression in E. coli” value is listed as “not soluble”.

Turning to “MSLHDYCLPCPTSLSGIAEVNPMSKPLVRWPINPLRTAVIVVDMQKVFCEPTGALYVKSTADIVQPIQKLLQAARAAQVMVIYLRHIVRGDGSDTGRMRDLYPNVDQILARHDPDVEVIEALAPQSDDVIVDKLFYSGFHNTDLDTVLRARDVDTIIVCGTVTNVCCETTIRDGVHREYKVIALSDANAAMDYPDVGFGAVSAADVQRISLTTIAYEFGEVTTTAEVIRREGHHHHHH”, the “soluble on expression in E. coli” value is on record as “not soluble”.
